Measurements reported in IntAct's records for PubMed 20956295.

Molecular target: cav1_human CAV1 (UniProt Q03135)
Chain of UniProt Q03135 (Q03135 whole entry): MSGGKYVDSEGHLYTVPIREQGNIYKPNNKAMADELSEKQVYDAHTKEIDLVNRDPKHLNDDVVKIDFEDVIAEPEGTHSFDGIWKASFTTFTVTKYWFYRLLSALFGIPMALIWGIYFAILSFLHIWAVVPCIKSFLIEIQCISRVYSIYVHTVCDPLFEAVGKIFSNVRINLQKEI

effect of a mutation on the interaction: disrupting interaction
Substance: Microtubule-associated protein 1 light chain 3 beta (Homo sapiens) (from UniProt Q9GZQ8) Y113A
